Source: patent US20110275102A1

Key:
Assay in all cases: cell-based or functional assay
[1] = biological target: EE-GSK3β: human GSK3β with the EFMPME (EE) epitope tag at the N-terminus (human) (UniProt P49841)
RPRTSSPA = biological target: RPRTSSPA
PRTSSF = biological target: PRTSSF
RPRTSAF = biological target: RPRTSAF

Chain of EE-GSK3β: human GSK3β with the EFMPME (EE) epitope tag at the N-terminus (human) (P49841 other isoform, or with tags, fused parts or gaps): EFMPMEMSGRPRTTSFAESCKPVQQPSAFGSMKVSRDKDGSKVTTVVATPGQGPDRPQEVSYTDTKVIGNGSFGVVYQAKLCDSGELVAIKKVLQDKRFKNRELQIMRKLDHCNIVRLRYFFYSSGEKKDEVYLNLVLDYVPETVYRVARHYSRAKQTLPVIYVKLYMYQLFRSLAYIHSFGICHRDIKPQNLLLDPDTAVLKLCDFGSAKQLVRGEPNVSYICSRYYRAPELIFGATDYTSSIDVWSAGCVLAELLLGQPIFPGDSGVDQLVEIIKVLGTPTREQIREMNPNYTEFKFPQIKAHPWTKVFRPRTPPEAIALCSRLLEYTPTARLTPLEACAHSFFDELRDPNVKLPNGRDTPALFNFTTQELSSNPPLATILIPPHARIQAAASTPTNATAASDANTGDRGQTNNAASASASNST

Substance	increase in GSK3 activity on PP2A treatment after coexpression in 293 cells [1]	rate of phosphorylation (cell stands under Vmax; may belong to V (0.1 mM)) (RPRTSSPA)	rate of phosphorylation (cell stands under Vmax; may belong to V (0.1 mM)) (PRTSSF)	rate of phosphorylation (cell stands under Vmax; may belong to V (0.1 mM)) (RPRTSAF)
HA-308D/473D-RAC-PKα: constitutively active double mutant (Thr308 and Ser473 changed to Asp) (enzyme)	85%			
HA-KD-RAC-PKα: kinase-dead HA-RAC-PKα in which Lys179 is mutated to Ala (enzyme)	12%			
HA-RAC-PKα immunoprecipitated from IGF-1 stimulated 293 cells (enzyme)		0	0	0
HA-RAC-PKα: haemagglutinin epitope-tagged wild-type human RAC-PKα (enzyme)	68%			
